Experimental data taken from patent US20250034594A1, “RNA-GUIDED GENOME RECOMBINEERING AT KILOBASE SCALE” (THE BOARD OF TRUSTEES OF THE LELAND STANFORD JUNIOR …, priority 2021, published 2025).

Experiments:
DYNLT1 locus = assay: mKate knock-in gene-editing assay, RecE/RecT homologs, DYNLT1 locus; assay type: cell-based, human; conditions: HEK293 cells, MCP fusion, n=3
Procedure: (§1) Transfection HEK293T cells were seeded into 96-well plates (Corning) 12-24 hours prior to transfection at a density of 30,000 cells/well, and 250 ng of total DNA was transfected per well. HeLa and HepG2 cells were seeded into 48-well plates (Corning) one day prior to transfection at a density of 50,000 and 30,000 cells/well respectively, and 400 ng of total DNA was transfected per well. Transfections were performed with Lipofectamine 3000 (Life Technologies) following the manufacturer's instructions.
(§2) Fluorescence-activated cell sorting (FACS) mKate knock-in efficiency was analyzed on a CytoFLEX flow cytometer (Beckman Coulter; Stanford Stem Cell FACS Core). 72 hours after transfection, cells were washed once with PBS and dissociated with TrypLE Express Enzyme (Thermo Fisher Scientific). Cell suspension was then transferred to a 96-well U-bottom plate (Thermo Fisher Scientific) and centrifuged at 300×G for 5 minutes. After removing the supernatant, pelleted cells were resuspended with 50 μl 4% FBS in PBS, and cells were sorted within 30 minutes of preparation.
(§3) 15 different species of microbes having RecE/RecT proteins were selected for a screen of various RecE and RecT proteins across the microbial kingdom (Table 3). Each protein was codon-optimized and synthesized. As previously described for E. coli RecE/RecT based REDIT systems, each protein was fused via E-XTEN linker to the MCP protein with additional nuclear localization signal. mKate knock-in gene-editing assay was used to measure efficiencies at DYNLT1 locus (FIG. 26A, Table 4) and HSP90AA1 locus (FIG. 26B, Table 4).

HSP90AA1 locus = assay: mKate knock-in gene-editing assay, RecE/RecT homologs, HSP90AA1 locus; assay type: cell-based, human; conditions: HEK293 cells, MCP fusion, n=3
Procedure: as §1, §2, §3

B1: Homolog_T8: RecT, Shewanella putrefaciens; SEQ ID NO: 127 (protein, listed as Shewanella putrefaciens)
chain: MQTAQVKLSVPHQQVYQDNFNYLSSQVVGHLVDLNEEIGYLNQIVFNSLSTASPLDVAAPWSVYGLLLNVCRLGLSLNPEKKLAYVMPSWSETGEIIMKLYPGYRGEIAIASNFNVIKNANAVLVYENDHFRIQAATGEIEHFVTSLSIDPRVRGACSGGYCRSVLMDNTIQISYLSIEEMNAIAQNQIEANMGNTPWNSIWRTEMNRVALYRRAAKDWRQLIKATPEIQSALSDTEY
Q: How did the “Mean mKate+ (%), DYNLT1” value (DYNLT1 locus) turn out when B1 was run?
A: 5.0400%

Q: And the “Mean mKate+ (%), HSP90AA1” value (HSP90AA1 locus)?
A: 5.7133%

B2: Homolog_T13: RecT, Salmonella enterica subsp. enterica serovar Javiana str. 10721; SEQ ID NO: 137 (protein, listed as Salmonella enterica)
chain: MPKQPPIAKADLQKTQGARTPTAVKNNNDVISFINQPSMKEQLAAALPRHMTAERMIRIATTEIRKVPALGDCDTMSFVSAIVQCSQLGLEPGGALGHAYLLPFGNRNEKSGKKNVQLIIGYRGMIDLARRSGQIASLSARVVREGDDFSFEFGLEEKLVHRPGENEDAPVTHVYAVARLKDGGTQFEVMTRKQIELVRAQSKAGNNGPWVTHWEEMAKKTAIRRLFKYLPVSIEIQRAVSMDEKETLTIDPADASVITGEYSVVENAGVEENVTA
Q: For B2, which “Mean mKate+ (%), DYNLT1” value (DYNLT1 locus) is on record?
A: 9.9567%

Q: And the “Mean mKate+ (%), HSP90AA1” value (HSP90AA1 locus)?
A: 5.7200%

B3: Homolog_T9: RecT, Bacillus sp. MUM 116; SEQ ID NO: 129 (protein, listed as Bacillus sp.)
chain: MSKQLTTVNTQAVVGTFSQAELDTLKQTIAKGTTNEQFALFVQTCANSRLNPFLNHIHCIVYNGKEGATMSLQIAVEGILYLARKTDGYKGIECQLIHENDEFKFDAKSKEVDHQIGFPRGNVIGGYAIAKREGFDDVVVLMESNEVDHMLKGRNGHMWRDWFNDMFKKHIMKRAAKLQYGIEIAEDETVSSGPSVDNIPEYKPQPRKDITPNQDVIDAPPQQPKQDDEAAKLKAARSEVSKKFKKLGIVKEDQTEYVEKHVPGFKGTLSDFIGLSQLLDLNIEAQEAQSADGDLLD
Q: Which results are given for B3?
A: Mean mKate+ (%), DYNLT1 (DYNLT1 locus): 8.1300%; Mean mKate+ (%), HSP90AA1 (HSP90AA1 locus): 6.2000%

B4: Homolog_T12: RecT, Acetobacter; SEQ ID NO: 135 (protein, listed as Acetobacter sp.)
chain: MNAPQKQNTRAAVKKISPQEFAEQFAAIIPQVKSVLPAHVTFEKFERVVRLAVRKNPDLLTCSPASLFMACIQAASDGLLPDGREGAIVSRWSSKKSCNEASWMPMVAGLMKLARNSGDIASISSQVVFEGEHFRVVLGDEERIEHERDLGKTGGKIVAAYAVARLKDGSDPIREIMSWGQIEKIRNTNKKWEWGPWKAWEDEMARKTVIRRLAKRLPMSTDKEGERLRSAIERIDSLVDISANVDAPQIAADDEFAAAAHGVEPQQIAAPDLIGRLAQMQSLEQVQDIEPQVSHAIQEADKRGDSDTANALDAALQSALSRTSTAKEEVPA
Q: For B4, which “Mean mKate+ (%), DYNLT1” value (DYNLT1 locus) is on record?
A: 8.5900%

Q: And the “Mean mKate+ (%), HSP90AA1” value (HSP90AA1 locus)?
A: 5.2733%

B5: Homolog_T11: RecT, Salmonella enterica; SEQ ID NO: 133 (protein, listed as Salmonella enterica)
chain: MTKQPPIAKADLQKTQGNRAPAAVNDKDVLCVINSPAMKAQLAAALPRHMTAERMIRIATTEIRKVPELRNCDSTSFIGAIVQCSQLGLEPGSALGHAYLLPFGNGKAKNGKKNVQLIIGYRGMIDLARRSGQIISLSARVVRECDEFSYELGLDEKLVHRPGENEDAPITHVYAVAKLKDGGVQFEVMTKKQVEKVRDTHSKAAKNAASKGASSIWDEHFEDMAKKTVIRKLFKYLPVSIEIQRAVSMDGKEVETINPDDISVIAGEYSVIDNPEE
Q: With B5 as the molecule, how does the “Mean mKate+ (%), DYNLT1” value (DYNLT1 locus) read?
A: 9.8467%

Q: And the “Mean mKate+ (%), HSP90AA1” value (HSP90AA1 locus)?
A: 4.9233%

B6: Homolog_T10: RecT, Shigella sonnei; SEQ ID NO: 131 (protein, listed as Shigella sonnei)
chain: MTKQPPIAKADLQKTQENRAPAAIKNNDVISFINQPSMKEQLAAALPRHMTAERMIRIATTEIRKVPALGNCDTMSFVSAIVQCSQLGLEPGSALGHAYLLPFGNKNEKSGKKNVQLIIGYRGMIDLARRSGQIASLSARVVREGDEFNFEFGLDEKLIHRPGENEDAPVTHVYAVARLKDGGTQFEVMTRRQIELVRSQSKAGNNGPWVTHWEEMAKKTAIRRLFKYLPVSIEIQRAVSMDEKEPLTIDPADSSVLTGEYSVIDNSEE
Q: B6 was tested. Which “Mean mKate+ (%), DYNLT1” value (DYNLT1 locus) did it give?
A: 8.5333%

Q: And the “Mean mKate+ (%), HSP90AA1” value (HSP90AA1 locus)?
A: 5.5900%

B7: Homolog_E10: RecE, Shigella sonnei; SEQ ID NO: 132 (protein, listed as Shigella sonnei)
chain: DRGLLTKEWRKGNRVSRITRTASGANAGGGNLTDRGEGFVHDLTSLARDIATGVLARSMDVDIYNLHPAHAKRIEEIIAENKPPFSVFRDKFITMPGGLDYSRAIVVASVKEAPIGIEVIPAHVTAYLNKVLTETDHANPDPEIVDIACGRSSAPMPQRVTEEGKQDDEEKLQPSGTTADEQGEAETMEPDATKHHQDTQPLDAQSQVNSVDAKYQELRAELHEARKNIPSKNPVDADKLLAASRGEFVDGISDPNDPKWVKGIQTRDSVYQNQPETEKTSPDMKQPEPVVQQEPEIAFNACGQTGGDNCPDCGAVMGDATYQETFDEENQVEAKENDPEEMEGAEHPHNENAGSDPHRDCSDETGEVADPVIVEDIEPGIYYGISNENYHAGPGVSKSQLDDIADTPALYLWRKNAPVDTTKTKTLDLGTAFHCRVLEPEEFSNRFIVAPEFNRRTNAGKEEEKAFLMECASTGKMVITAEEGRKIELMYQSVMALPLGQWLVESAGHAESSIYWEDPETGILCRCRPDKIIPEFHWIMDVKTTADIQRFKTAYYDYRYHVQDAFYSDGYEAQFGVQPTFVFLVASTTIECGRYPVEIFMMGEEAKLAGQLEYHRNLRTLADCLNTDEWPAIKTLSLPRWAKEYAND
Q: What does the source list for B7?
A: Mean mKate+ (%), DYNLT1 (DYNLT1 locus): 4.4000%; Mean mKate+ (%), HSP90AA1 (HSP90AA1 locus): 3.5900%

B8: Homolog_E8: RecE, Shewanella putrefaciens; SEQ ID NO: 128 (protein, listed as Shewanella putrefaciens)
chain: MGTALAQTISLDWQDTIQPAYTASGKPNFLNAQGEIVEGIYTDLPNSVYHALDAHSSTGIKTFAKGRHHYFRQYLSDVCRQRTKQQEYTFDAGTYGHMLVLEPENFHGNFMRNPVPDDFPDIELIESIPQLKAALAKSNLPVSGAKAALIERLYAFDPSLPLFEKMREKAITDYLDLRYAKYLRTDVELDEMATFYGIDTSQTREKKIEEILAISPSQPIWEKLISQHVIDHIVWDDAMRVERSTRAHPKADWLISDGYAELTIIARCPTTGLLLKVRFDWLRNDAIGVDFKTTLSTNPTKFGYQIKDLRYDLQQVFYCYVANLAGIPVKHFCFVATEYKDADNCETFELSHKKVIESTEEMFDLLDEFKEALTSGNWYGHDRSRSTWVIEV
Q: How did the “Mean mKate+ (%), DYNLT1” value (DYNLT1 locus) turn out when B8 was run?
A: 4.6567%

Q: What about the “Mean mKate+ (%), HSP90AA1” value (HSP90AA1 locus) of the same molecule?
A: 7.0533%

B9: Homolog_E12: RecE, Acetobacter; SEQ ID NO: 136 (protein, listed as Acetobacter sp.)
chain: MVISKSGIYDLTNEQYHADPCPEMSLSSSGARDLLSSCPAKFIAAKQLPQQNKRCFDIGSAGHLMVLEPHLFDQKVCEIKHPDWRTKAAKEERDAAYAEGRIPLLSREVEDIRAMHSVVWRDSLGARAFSGGKAEQSLVWRDEEFGIWCRLRPDYVPNNAVRIFDYKTATNGSPDAFMKEIYNRGYHQQAAWYLDGYEAVTGHRPREFWFVVQEKTAPFLLSFFQMDEMSLEIGRTLNRQAKGIFAWCLRNNCWPGYQPEVDGKVRFFTTSPPAWLVREYEFKNEHGAYEPPEIKRKEVA
Q: For B9, which “Mean mKate+ (%), DYNLT1” value (DYNLT1 locus) is on record?
A: 5.2633%

Q: And the “Mean mKate+ (%), HSP90AA1” value (HSP90AA1 locus)?
A: 6.0800%

B10: Homolog_E9: RecE, Bacillus sp. MUM 116; SEQ ID NO: 130 (protein, listed as Bacillus sp.)
chain: MTYAADETLVQLLLSVDGKQLLLGRGLKKGKAQYYINEVPSKAKEFEEIRDQLFDKDLFMSLFNPSYFFTLHWEKQRAMMLKYVTAPVSKEVLKNLPEAQSEVLERYLKKHSLVDLEKIHKDNKNKQDKAYISAQSRTNTLKEQLMQLTEEKLDIDSIKAELAHIDMQVIELEKQMDTAFEKNQAFNLQAQIRNLQDKIEMSKERWPSLKNEVIEDTCRTCKRPLDEDSVEAVKADKDNRIAEYKAKHNSLVSQRNELKEQLNTIEYIDVTELREQIKELDESGQPLREQVRIYSQYQNLDTQVKSAEADENGILQDLKASIFILDSIKAFRGKEAEMQAEKVQALFTTLSVRLFKQNKGDGEIKPDFEIEMNDKPYRTLSLSEGIRAGLELRDVLSQQSELVTPTFVDNAESITSFKQPNGQLIISRVVAGQELKIEAVSE
Q: For B10, which “Mean mKate+ (%), DYNLT1” value (DYNLT1 locus) is on record?
A: 5.3233%

Q: What about the “Mean mKate+ (%), HSP90AA1” value (HSP90AA1 locus) of the same molecule?
A: 5.6900%

B11: Homolog_E11: RecE, Salmonella enterica; SEQ ID NO: 134 (protein, listed as Salmonella enterica)
chain: DRGLLTKEWRKGNRVSRITRTASGANAGGGNLTDRGEGFVHDLTSLARDVATGVLARSMDVDIYNLHPAHAKRVEEIIAENKPPFSVFRDKFITMPGGLDYSRAIVVASVKEAPIGIEVIPAHVTEYLNKVLTETDHANPDPEIVDIACGRSSAPMPQRVTEEGKQDDEEKPQPSGAMADEQATAETVEPNATEHHQNTQPLDAQSQVNSVDAKYQELRAELQEARKNIPSKNPVDADKLLAASRGEFVDGISDPNDPKWVKGIQTRDSVYQNQPETEKISPDAKQPEPVVQQEPETVCNACGQTGGDNCPDCGAVMGDATYQETFGEENQVEAKEKDPEEMEGAEHPHNENAGSDPHRDCSDETGEVADPVIVEDIEPGIYYGISNENYHAGPGVSKSQLDDIADTPALYLWRKNAPVDTTKTKTLDLGTAFHCRVLEPEEFSNRFIVAPEFNRRTNAGKEEEKAFLMECASTGKTVITAEEGRKIELMYQSVMALPLGQWLVESAGHAESSIYWEDPETGILCRCRPDKIIPEFHWIMDVKTTADIQRFKTAYYDYRYHVQDAFYSDGYEAQFGVQPTFVFLVASTTVECGRYPVEIFMMGEEAKLAGQQEYHRNLRTLADCLNTDEWPAIKTLSLPRWAKEYAND
Q: How did the “Mean mKate+ (%), DYNLT1” value (DYNLT1 locus) turn out when B11 was run?
A: 7.0567%

Q: What about the “Mean mKate+ (%), HSP90AA1” value (HSP90AA1 locus) of the same molecule?
A: 3.1167%
